Experimental data reported in patent US11180767B2, “Protease deficient filamentous fungal cells and methods of use thereof” (GLYKOS FINLAND OY, priority 2012, dated 2021).

B1: pep3: T. reesei aspartic protease tre121133 expressed from Pichia (protein, listed as Trichoderma reesei)
chain: MEAILQAQAKFRLDRGLQKITAVRNKNYKRHGPKSYVYLLNRFGFEPTKPGPYFQQHRIHQRGLAHPDFKAAVGGRVTRQKVLAKKVKEDGTVDAGGSKTGEVDAEDQQNDSEYLCEVTIGTPGQKLMLDFDTGSSDLWVFSTELSKHLQENHAIFDPKKSSTFKPLKDQTWQISYGDGSSASGTCGSDTVTLGGLSIKNQTIELASKLAPQFAQGTGDGLLGLAWPQINTVQTDGRPTPANTPVANMIQQDDIPSDAQLFTAAFYSERDENAESFYTFGYIDQDLVSASGQEIAWTDVDNSQGFWMFPSTKTTINGKDISQEGNTAIADTGTTLALVSDEVCEALYKAIPGAKYDDNQQGYVFPINTDASSLPELKVSVGNTQFVIQPEDLAFAPADDSNWYGGVQSRGSNPFDILGDVFLKSVYAIFDQGNQRFGAVPKIQAKQNLQPPQ
B2: gap2: T. reesei glutamic protease tre106661 in Pichia supernatant (protein, listed as Trichoderma reesei)
chain: MDAIRARSAARRSNRFQAGSSKNVNGTADVESTNWAGAAITTSGVTEVSGTFTVPRPSVPAGGSSREEYCGAAWVGIDGYSDADLIQTGVLWCVEDGEYLYEAWYEYLPAALVEYSGISVTAGSVVTVTATKTGTNSGVTTLTSGGKTVSHTFSRQNSPLPGTSAEWIVEDFTSGSSLVPFADFGSVTFTGATAVVNGATVTAGGDSPVIIDLEDSRGDILTSTTVSGSTVTVEYE
B3: pep7: T. reesei aspartic protease tre58669 expressed from Pichia (protein, listed as Trichoderma reesei)
chain: MTLPVPLREHDLPFLKEKRKLPADDIPSGTYTLPIIHARRPKLASRAIEVQVENRSDVSYYAQLNIGTPPQTVYAQIDTGSFELWVNPNCSNVQSADQRFCRAIGFYDPSSSSTADVTSQSARLRYGIGSADVTYVHDTISLPGSGSGSKAMKAVQFGVADTSVDEFSGILGLGAGNGINTEYPNFVDELAAQGVTATKAFSLALGSKAEEEGVIIFGGVDTAKFHGELAHLPIVPADDSPDGVARYWVKMKSISLTPPPPSSSGSTDDNNNKPVAFPQTSMTVFLDSGSTLTLLPPALVRQIASALGSTQTDESGFFVVDCALASQDGTIDFEFDGVTIRVPYAEMIRQVSTLPPHCYLGMMGSTQFALLGDTFLRSAYAVFDLTSNVVHLAPYANCGTNVKSITSTSSLSNLVGTCNDPSKPSSSPSPSQTPSASPSSTATQKA
B4: slp6: T. reesei subtilisin protease overproduced in Pichia supernatant (protein, listed as Trichoderma reesei)
chain: MASLRRLALYLGALLPAVLAAPAVNYKLPEAVPNKFIVTLKDGASVDTDSHLTWVKDLHRRSLGKRSTAGVEKTYNIDSWNAYAGEFDEETVKQIKANPDVASVEPDYIMWLSDIVEDKRALTTQTGAPWGLGTVSHRTPGSTSYIYDTSAGSGTFAYVVDSGINIAHQQFGGRASLGYNAAGGDHVDTLGHGTHVSGTIGGSTYGVAKQASLISVKVFQGNSASTSVILDGYNWAVNDIVSRNRASKSAINMSLGGPASSTWATAINAAFNKGVLTIVAAGNGDALGNPQPVSSTSPANVPNAITVAALDINWRTASFTNYGAGVDVFAPGVNILSSWIGSNTATNTISGTSMATPHVVGLALYLQALEGLSTPTAVTNRIKALATTGRVTGSLNGSPNTLIFNGNSA

Columns and labels:
[1] = test system: MAB01 heavy chain; test: Antibody degradation by Pichia-expressed T. reesei proteases (MAB01); type: biochemical
Protocol: The T. reesei aspartic proteases pep3 (tre121133) and pep7 (tre58669) expressed from Pichia were also tested in vitro, by measuring the degradation of the MAB01 antibody and IGF-1. Degradation of MAB01 and IGF-1 by pep3 and pep7 was analyzed by immunoblotting. The aspartic proteases were produced in Pichia supernatants. Pichia supernatants were diluted to 1× concentration, and then mixed with 50 mM sodium citrate buffer, pH 5.5. MAB01 was added to each reaction so that the final concentration would be 0.05 μg IGF-1 was added to each reaction so that the final concentration would be 0.30 μg μl. Ten microliters of each reaction mixture was then sampled and added to 3 μl of Laemmli sample buffer with β-mercaptoethanol. The samples were heated at 95° C. for 5 minutes before being loaded into a 4-15% PAGE gel (BioRad mini-protean TGX precast gel) along with an all blue precision plus prestained molecular weight marker (BioRad). The PAGE gel was run for 30 minutes at 200V. The proteins in the gel were then electrotransferred into a nitrocellulose filter at 100V for 1 hour. The protein containing nitrocellulose filter was then blocked with 5% milk powder in Tris buffered saline with 0.1% tween (TBST) for 1 hour shaking at room temperature. The blocked membranes were then probed with antibody. The MAB01 containing membranes were probed with an anti-IgG heavy chain antibody AP conjugate (Sigma #A3188) diluted 1:30,000 in TBST. The IGF-1 samples were analyzed using a primary anti-IGF-1 antibody (1:2000 in TBST) and anti-IgG AP conjugated secondary antibody (1:5000 in TBST). All antibody incubations were done for 1 hour at room temperature on a shaker. The membranes were then washed with 3 changes of TBST for 20 minutes each on the shaker. The membranes were developed with the BCIP/NBT alkaline phosphatase substrate (Promega #S3771) for up to 5 minutes.
Pichia supernatants containing Trichoderma reesei gap2 were also studied in vitro. The gap2 containing supernatant and MAB01 antibody were diluted into sodium citrate buffers adjusted to pH 4.0, 4.5, 5.0, and 5.5, and incubated for 20 hours at 37° C. Samples were taken at 0 minutes and after 20 hours. MAB01 heavy chain production was analyzed by immunoblotting using an anti-IgG heavy chain (Sigma #A3188) antibody AP conjugate.
(§1) The Trichoderma reesei subtilisin proteases slp5, slp6, and slp7 were overproduced in Pichia supernatants for investigation of their activity against the antibody rituximab and MAB01 heavy chains (FIG. 25). The rituximan mock supernatant was compared to supernatants containing slp5 and slp6 (FIG. 25 A). The MAB01 mock supernatant was compared to supernatants containing slp7 (FIG. 25B). Rituximab and MAB01 were added to the protease-containing Pichia supernatants and incubated overnight at 37° C. Samples were taken and analyzed by immunoblotting with an anti-heavy chain AP conjugated antibody.

[2] = test system: rituximab heavy chain; test: Antibody degradation by Pichia-expressed T. reesei proteases (rituximab); type: biochemical; conditions: overnight 37°C
Protocol: as §1

[3] = pH 5.5, 37°C, overnight/20 hours

Row | Molecule | MAB01 degrading activity ([1]; pH 4.5, 37°C, overnight) | MAB01 degrading activity [1, 3] | proteolytic activity against heavy chain MAB01 ([1]; pH 4.0, 37°C, 20 hours) | degradation of rituximab heavy chain vs mock supernatant [2] | degradation of MAB01 heavy chain vs mock supernatant ([1]; Pichia supernatant, overnight 37°C)
1 | B1 | higher | low MAB01 degrading activity |  |  | 
2 | B2 |  | low | maximal proteolytic activity |  | 
3 | B3 | minimal antibody degrading activity |  |  |  | 
4 | B4 |  |  |  | heavy degradation activity | light degradation
